Test results published in publication PMC2116009 (The Journal of Cell Biology, 1990).

Target: chicken transferrin receptor, endogenous on chicken embryo fibroblasts (chicken (endogenous in CEF), UniProt Q90997 1-776)
Experiment: radioligand binding

chicken transferrin receptor, endogenous on chicken embryo fibroblasts, sequence (Q90997 whole entry): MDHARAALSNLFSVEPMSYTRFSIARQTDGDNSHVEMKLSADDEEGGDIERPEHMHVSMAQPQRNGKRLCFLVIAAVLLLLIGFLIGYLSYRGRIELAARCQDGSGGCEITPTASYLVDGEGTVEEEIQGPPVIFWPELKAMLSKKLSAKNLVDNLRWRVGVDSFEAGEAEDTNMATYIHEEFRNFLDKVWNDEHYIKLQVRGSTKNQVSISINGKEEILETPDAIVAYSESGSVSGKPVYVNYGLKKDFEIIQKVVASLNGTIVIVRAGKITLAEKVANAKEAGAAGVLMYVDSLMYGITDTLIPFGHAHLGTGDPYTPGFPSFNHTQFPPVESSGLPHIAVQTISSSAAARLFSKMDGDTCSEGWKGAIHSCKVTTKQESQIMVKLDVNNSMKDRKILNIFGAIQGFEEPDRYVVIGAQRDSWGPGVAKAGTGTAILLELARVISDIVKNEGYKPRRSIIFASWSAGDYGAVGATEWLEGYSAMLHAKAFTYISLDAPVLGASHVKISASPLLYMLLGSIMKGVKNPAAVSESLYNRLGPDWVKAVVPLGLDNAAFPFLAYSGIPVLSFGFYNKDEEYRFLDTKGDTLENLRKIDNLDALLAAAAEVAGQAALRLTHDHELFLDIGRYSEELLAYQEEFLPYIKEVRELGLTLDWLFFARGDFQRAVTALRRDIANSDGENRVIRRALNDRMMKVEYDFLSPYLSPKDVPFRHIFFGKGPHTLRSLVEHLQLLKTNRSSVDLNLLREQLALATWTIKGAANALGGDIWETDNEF

B1: ovotransferrin (ligand)
chain: APPKSVIRWCTISSPEEKKCNNLRDLTQQERISLTCVQKATYLDCIKAIANNEADAISLDGGQAFEAGLAPYKLKPIAAEVYEHTEGSTTSYYAVAVVKKGTEFTVNDLQGKTSCHTGLGRSAGWNIPIGTLLHRGAIEWEGIESGSVEQAVAKFFSASCVPGATIEQKLCRQCKGDPKTKCARNAPYSGYSGAFHCLKDGKGDVAFVKHTTVNENAPDQKDEYELLCLDGSRQPVDNYKTCNWARVAAHAVVARDDNKVEDIWSFLSKAQSDFGVDTKSDFHLFGPPGKKDPVLKDLLFKDSAIMLKRVPSLMDSQLYLGFEYYSAIQSMRKDQLTPSPRENRIQWCAVGKDEKSKCDRWSVVSNGDVECTVVDETKDCIIKIMKGEADAVALDGGLVYTAGVCGLVPVMAERYDDESQCSKTDERPASYFAVAVARKDSNVNWNNLKGKKSCHTAVGRTAGWVIPMGLIHNRTGTCNFDEYFSEGCAPGSPPNSRLCQLCQGSGGIPPEKCVASSHEKYFGYTGALRCLVEKGDVAFIQHSTVEENTGGKNKADWAKNLQMDDFELLCTDGRRANVMDYRECNLAEVPTHAVVVRPEKANKIRDLLERQEKRFGVNGSEKSKFMMFESQNKDLLFKDLTKCLFKVREGTTYKEFLGDKFYTVISSLKTCNPSDILQMCSFLEGK
Question: How did the Kd turn out when B1 was run?
Answer: ~100 nM
